Data: paper PMC9302676
Substitutions are numbered along the chain they refer to. In names and notes the source's numbering stands.

B1: P450 BM3 (CYP102A1) (Priestia megaterium NBRC 15308 = ATCC 14581) (protein)
chain: MTIKEMPQPKTFGELKNLPLLNTDKPVQALMKIADELGEIFKFEAPGRVTRYLSSQRLIKEACDESRFDKNLSQALKFVRDFAGDGLFTSWTHEKNWKKAHNILLPSFSQQAMKGYHAMMVDIAVQLVQKWERLNADEHIEVPEDMTRLTLDTIGLCGFNYRFNSFYRDQPHPFITSMVRALDEAMNKLQRANPDDPAYDENKRQFQEDIKVMNDLVDKIIADRKASGEQSDDLLTHMLNGKDPETGEPLDDENIRYQIITFLIAGHETTSGLLSFALYFLVKNPHVLQKAAEEAARVLVDPVPSYKQVKQLKYVGMVLNEALRLWPTAPAFSLYAKEDTVLGGEYPLEKGDELMVLIPQLHRDKTIWGDDVEEFRPERFENPSAIPQHAFKPFGNGQRACIGQQFALHEATLVLGMMLKHFDFEDHTNYELDIKETLTLKPEGFVVKAKSKKIPLGGIPSPSTEQSAKKVRKKAENAHNTPLLVLYGSNMGTAEGTARDLADIAMSKGFAPQVATLDSHAGNLPREGAVLIVTASYNGHPPDNAKQFVDWLDQASADEVKGVRYSVFGCGDKNWATTYQKVPAFIDETLAAKGAENIADRGEADASDDFEGTYEEWREHMWSDVAAYFNLDIENSEDNKSTLSLQFVDSAADMPLAKMHGAFSTNVVASKELQQPGSARSTRHLEIELPKEASYQEGDHLGVIPRNYEGIVNRVTARFGLDASQQIRLEAEEEKLAHLPLAKTVSVEELLQYVELQDPVTRTQLRAMAAKTVCPPHKVELEALLEKQAYKEQVLAKRLTMLELLEKYPACEMKFSEFIALLPSIRPRYYSISSSPRVDEKQASITVSVVSGEAWSGYGEYKGIASNYLAELQEGDTITCFISTPQSEFTLPKDPETPLIMVGPGTGVAPFRGFVQARKQLKEQGQSLGEAHLYFGCRSPHEDYLYQEELENAQSEGIITLHTAFSRMPNQPKTYVQHVMEQDGKKLIELLDQGAHFYICGDGSQMAPAVEATLMKSYADVHQVSEADARLWLQQLEEKGRYAKDVWAG
B2: P450 BM3 (CYP102A1) (Priestia megaterium NBRC 15308 = ATCC 14581; N320L/T412V) (protein)
chain: B1 chain with N320L, T412V
B3: P450 BM3 (CYP102A1) (Priestia megaterium NBRC 15308 = ATCC 14581; T412V/T437A) (protein)
chain: B1 chain with T412V, T437A
B4: P450 BM3 (CYP102A1) (Priestia megaterium NBRC 15308 = ATCC 14581; N320L/T412V/T437A) (protein)
chain: B1 chain with N320L, T412V, T437A
B5: P450 BM3 (CYP102A1) (Priestia megaterium NBRC 15308 = ATCC 14581; N320L/T437A) (protein)
chain: B1 chain with N320L, T437A

Substrate: CC1=CC(=O)CC(C)(C)C1
Test: purified protein
Conditions: 1 μM enzyme, 1 mM NADPH, KPi 50 mM pH 7.4, 2-50 mM substrate, 30.0 °C

| Protein | Km |
| --- | --- |
| B1 | 10.95 ± 0.80 mM |
| B2 | 17.67 ± 0.46 mM |
| B3 | 11.39 ± 0.84 mM |
| B4 | 8.29 ± 0.77 mM |
| B5 | 10.09 ± 0.18 mM |
